Data as given in the supplement of paper PMC7877785.
± gives the uncertainty stated by the source.

Experiment: self-splicing fitness, log relative to wild type (ln ratio); higher = more splicing; Tetrahymena group I intron in knt gene, E. coli kanamycin selection, DiMSum; sequences stand for … in CUCUCU…GGAGGGAAAAGUUAUCAGGCAUGCACCUGGUAGCUAGUCUUUAAACCAAUAGAUUGCAUCGGUUUAAAAGGCAAGACCGUCAAAUUGCGGGAAAGGGGUCAACAGCCGUUCAGUACCAAGUCUCAGGGGAAACUUUGAGAUGGCCUUGCAAAGGGUAUGGUAAUAAGCUGACGGACAUGGUCCUAACCACGCAGCCAAGUCCUAAGUCAACAGAUCUUCUGUUGAUAUGGAUGCAGUUCACAGACUAAAUGUCGGUCGGGGAAGAUGUAUUCUUCUCAUAAGAUAUAGUCGGACCUCUCCUUAAUGGGAGCUAGCGGAUGAAGUGAUGCAACACUGGAGCCGCUGGGAACUAAUUUGUAUGCGAAAGUAUAUUGAUUAGUUUUGGAGUACUCGUGGUCG
Method in brief: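 Colonies from six replicate transformations of E. coli BL21(DE3) were pooled and amplicon-sequenced on an Illumina HiSeq 2500. The library placed an intron with all eight P1ex-region nucleotides randomised inside the knt kanamycin-resistance gene on pET-22b(+), and cells grew overnight at 37°C or 30°C on LB agar with or without 25 μg/mL kanamycin (plus 100 μg/mL carbenicillin, 50 μM IPTG, 0.2% rhamnose). Fitness is the DiMSum error-weighted combination of wild-type-normalised replicate fold changes, kanamycin versus none.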

Row | Sequence | self-splicing fitness (ln) (30 °C) | self-splicing fitness (ln) (37 °C)
1 | GAAAAGCAAUAUUACGAUAC | -1.21 ± 0.25 | -0.873 ± 0.22
2 | GAAAAGCAAUAUUACGAUCC | -1 ± 0.11 | -0.724 ± 0.15
3 | GAAAAGCAAUAUUACGCAAA | -0.0354 ± 0.26 | -1.79 ± 0.32
4 | GAAAAGCAAUAUUACGCAAU | -2.28 ± 0.12 | -1.41 ± 0.17
5 | GAAAAGCAAUAUUACGCAGG | -2.07 ± 0.076 | -1.85 ± 0.087
6 | GAAAAGCAAUAUUACGCCAU | -2.84 ± 0.15 | -1.57 ± 0.15
7 | GAAAAGCAAUAUUACGCCGU | -1.75 ± 0.097 | -0.396 ± 0.1
8 | GAAAAGCAAUAUUACGCGCG | -0.276 ± 0.076 | -0.478 ± 0.11
9 | GAAAAGCAAUAUUACGCGCU | -0.913 ± 0.11 | -0.301 ± 0.11
10 | GAAAAGCAAUAUUACGGAUC | -1.04 ± 0.072 | -0.773 ± 0.087
11 | GAAAAGCAAUAUUACGGCAC | -0.696 ± 0.058 | -0.217 ± 0.093
12 | GAAAAGCAAUAUUACGGGAG | -2.95 ± 0.097 | -1.95 ± 0.086
13 | GAAAAGCAAUAUUACGGGGA | -1.38 ± 0.16 | -2.44 ± 0.23
14 | GAAAAGCAAUAUUACGGGUA | -1.29 ± 0.1 | -0.306 ± 0.095
15 | GAAAAGCAAUAUUACGGUCA | -0.479 ± 0.067 | 0.0562 ± 0.073
16 | GAAAAGCAAUAUUACGGUCG | -0.446 ± 0.065 | -0.0366 ± 0.1
17 | GAAAAGCAAUAUUACGUACC | -0.525 ± 0.092 | -0.528 ± 0.14
18 | GAAAAGCAAUAUUACGUCAA | -2.62 ± 0.19 | -1.11 ± 0.14
19 | GAAAAGCAAUAUUACGUCAG | -3.91 ± 0.33 | -1.39 ± 0.19

Row | Sequence | self-splicing fitness (ln) (30 °C) | self-splicing fitness (ln) (37 °C)
20 | GAAAAGCAAUAUUACGUCCG | -1.72 ± 0.12 | -0.481 ± 0.14
21 | GAAAAGCAAUAUUACGUUAA | -2.85 ± 0.15 | -1.78 ± 0.13
22 | GAAAAGCAAUAUUACGUUCG | -1.01 ± 0.064 | -0.233 ± 0.08
23 | GAACAGCAAUAUUACGAAGA | -1.13 ± 0.18 | -0.694 ± 0.16
24 | GAACAGCAAUAUUACGAAGC | -1.37 ± 0.1 | -1.14 ± 0.13
25 | GAACAGCAAUAUUACGAGAG | -3.49 ± 0.17 | -1.83 ± 0.1
26 | GAACAGCAAUAUUACGAGGA | -2.14 ± 0.11 | -1.53 ± 0.14
27 | GAACAGCAAUAUUACGAGUG | -1.78 ± 0.081 | -1.31 ± 0.1
28 | GAACAGCAAUAUUACGAUCC | -2.18 ± 0.17 | -0.784 ± 0.24
29 | GAACAGCAAUAUUACGCCAU | -3.82 ± 0.2 | -2.14 ± 0.18
30 | GAACAGCAAUAUUACGCGUC | -2.99 ± 0.12 | -3.19 ± 0.16
31 | GAACAGCAAUAUUACGGCAA | -0.669 ± 0.094 | -0.372 ± 0.091
32 | GAACAGCAAUAUUACGGGCU | -3.02 ± 0.15 | -0.92 ± 0.11
33 | GAACAGCAAUAUUACGGGGC | -3.05 ± 0.15 | -3.3 ± 0.21
34 | GAACAGCAAUAUUACGGGGU | -2.39 ± 0.081 | -2.57 ± 0.15
35 | GAACAGCAAUAUUACGGUGA | -1.08 ± 0.071 | 0.0381 ± 0.08
36 | GAACAGCAAUAUUACGUCCC | -1.98 ± 0.16 | -1.25 ± 0.19
37 | GAACAGCAAUAUUACGUCCU | -1.24 ± 0.09 | -0.941 ± 0.11
